From paper PMC4304825, “Six Amino Acid Residues in a 1200 Å2 Interface Mediate Binding of Factor VIII to an IgG4κ Inhibitory Antibody” (PLoS ONE, 2015)
Where a chain is given by its changes, count along the chain named. Names and notes keep the numbering of the source. Blank lines part the entries; values can stand above or below the binder they belong to.

Target: T1, von Willebrand factor (VWF) (UniProt P04275 764-2813)
T1 construct: von Willebrand factor; Immobilised by amine coupling
Assay: SPR; VWF attached to a CM4 chip by amine coupling at low density (200 RUs); BDD-FVIII proteins injected in a 3-fold concentration series from 0.22-18 nM, single-cycle kinetics; fit to a 1:1 model; Biacore T200
Details: both partners purified

Kd: 0.29 nM | koff: 0.00069 s⁻¹ | kon: 2.4e+06 M⁻¹ s⁻¹
B1: WT-BDD-FVIII (wild-type B-domain-deleted factor VIII) (natural protein)
chain 1: ATRRYYLGAVELSWDYMQSDLGELPVDARFPPRVPKSFPFNTSVVYKKTLFVEFTDHLFNIAKPRPPWMGLLGPTIQAEVYDTVVITLKNMASHPVSLHAVGVSYWKASEGAEYDDQTSQREKEDDKVFPGGSHTYVWQVLKENGPMASDPLCLTYSYLSHVDLVKDLNSGLIGALLVCREGSLAKEKTQTLHKFILLFAVFDEGKSWHSETKNSLMQDRDAASARAWPKMHTVNGYVNRSLPGLIGCHRKSVYWHVIGMGTTPEVHSIFLEGHTFLVRNHRQASLEISPITFLTAQTLLMDLGQFLLFCHISSHQHDGMEAYVKVDSCPEEPQLRMKNNEEAEDYDDDLTDSEMDVVRFDDDNSPSFIQIRSVAKKHPKTWVHYIAAEEEDWDYAPLVLAPDDRSYKSQYLNNGPQRIGRKYKKVRFMAYTDETFKTREAIQHESGILGPLLYGEVGDTLLIIFKNQASRPYNIYPHGITDVRPLYSRRLPKGVKHLKDFPILPGEIFKYKWTVTVEDGPTKSDPRCLTRYYSSFVNMERDLASGLIGPLLICYKESVDQRGNQIMSDKRNVILFSVFDENRSWYLTENIQRFLPNPAGVQLEDPEFQASNIMHSINGYVFDSLQLSVCLHEVAYWYILSIGAQTDFLSVFFSGYTFKHKMVYEDTLTLFPFSGETVFMSMENPGLWILGCHNSDFRNRGMTALLKVSSCDKNTGDYYEDSYEDISAYLLSKNNAIEPR
chain 2: EITRTTLQSDQEEIDYDDTISVEMKKEDFDIYDEDENQSPRSFQKKTRHYFIAAVERLWDYGMSSSPHVLRNRAQSGSVPQFKKVVFQEFTDGSFTQPLYRGELNEHLGLLGPYIRAEVEDNIMVTFRNQASRPYSFYSSLISYEEDQRQGAEPRKNFVKPNETKTYFWKVQHHMAPTKDEFDCKAWAYFSDVDLEKDVHSGLIGPLLVCHTNTLNPAHGRQVTVQEFALFFTIFDETKSWYFTENMERNCRAPCNIQMEDPTFKENYRFHAINGYIMDTLPGLVMAQDQRIRWYLLSMGSNENIHSIHFSGHVFTVRKKEEYKMALYNLYPGVFETVEMLPSKAGIWRVECLIGEHLHAGMSTLFLVYSNKCQTPLGMASGHIRDFQITASGQYGQWAPKLARLHYSGSINAWSTKEPFSWIKVDLLAPMIIHGIKTQGARQKFSSLYISQFIIMYSLDGKKWQTYRGNSTGTLMVFFGNVDSSGIKHNIFNPPIIARYIRLHPTHYSIRSTLRMELMGCDLNSCSMPLGMESKAISDAQITASSYFTNMFATWSPSKARLHLQGRSNAWRPQVNNPKEWLQVDFQKTMKVTGVTTQGVKSLLTSMYVKEFLISSSQDGHQWTLFFQNGKVKVFQGNQDSFTPVVNSLDPPLLTRYLRIHPQSWVHQIALRMEVLGCEAQDLY

Kd: 0.25 nM | koff: 0.00067 s⁻¹ | kon: 2.7e+06 M⁻¹ s⁻¹
B2: BDD-FVIII-M2199A (natural protein)
chain 1: B1 chain 1
chain 2: B1 chain 2 with M551A

Kd: 0.2 nM | koff: 0.00054 s⁻¹ | kon: 2.9e+06 M⁻¹ s⁻¹
B3: BDD-FVIII-F2196K (natural protein)
chain 1: B1 chain 1
chain 2: B1 chain 2 with F548K
